Assay [1] addresses T1, endogenous human APOL1 (wild-type immortalized podocytes; also JHH-1 cells, kidney and liver tissue) (human, UniProt O14791 28-398).
T1 construct: whole, on cells; Cell or tissue and permeabilization are told under assay; also called podocyte APOL1; endogenous APOL1
T1 sequence (looked up): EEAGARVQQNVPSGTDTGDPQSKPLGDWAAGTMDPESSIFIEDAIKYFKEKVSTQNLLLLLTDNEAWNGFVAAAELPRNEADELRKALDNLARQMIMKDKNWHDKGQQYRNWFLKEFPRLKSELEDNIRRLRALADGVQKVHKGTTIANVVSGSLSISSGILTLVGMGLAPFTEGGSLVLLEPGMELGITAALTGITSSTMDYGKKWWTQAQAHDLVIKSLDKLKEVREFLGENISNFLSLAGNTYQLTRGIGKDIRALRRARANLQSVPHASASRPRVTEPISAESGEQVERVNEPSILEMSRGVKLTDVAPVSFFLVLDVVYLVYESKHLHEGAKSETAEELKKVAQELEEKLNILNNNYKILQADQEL
In words: podocyte flow cytometry. Here is the method:
In FIG. 25A, live WT (left) or APOL1 KO (right) podocytes were incubated on ice for 1 h (without fixation or permeabilization) with 2.5 μg/ml 3.6D12 (an APOL2 cross-reactive mAb). “2° Ab” is Alexa488 anti-mouse secondary antibody alone; “—IFNγ” is untreated; “+IFNγ” is IFNγ-treated cells. There is a shift on WT, but not KO cells (which express APOL2 but not APOL1). […] Thus, the shift seen with 3.6D12 in WT cells must represent APOL1, and increases with IFNγ, as expected.
(§1) Cells were harvested with 5 mM EDTA in PBS, washed once with growth media and twice with PBS. Approximately 0.5×10⁶/m1 of cells resuspended in PBS were incubated with anti-APOL1 antibodies for 1 h on ice. Following two PBS washes, 2 μg/ml of Alexa488 anti-mouse or anti-rabbit (Invitrogen A11029 and A21206, respectively) was used for 1 h on ice for detection. Cells were washed twice in PBS and resuspended in PBS with 1 μg/ml propidium iodide. Signals were read in a FACSCalibur3 (Becton Dickinson), with the exception of FIG. 8A and FIG. 14, which used a FACSCelesta, and data was analyzed using FlowJo v8.4.5. Mean fluorescence intensities were plotted in PRISM v7 after subtraction of secondary antibody alone background. For low pH experiments, cells were incubated with the antibodies in the presence of PBS pH 7.0 or PBS pH 5.5 for an hour on ice and detected with secondary antibodies at neutral pH.

The target in assay [2] is T2, native full length untagged APOL1-G0 (iAPOL1-CHO, construct a) (human, UniProt O14791 28-398).
T2 construct: Also used as CHO lysate in western blots; also called iAPOL1-G0; WT iAPOL1-G0
T2 sequence: T1 sequence (looked up)
In words: immunofluorescence, PFA-fixed permeabilized iAPOL1-CHO cells. The text has this: APOL2 is shown stained with 3.6D12 (a mAb to the N-terminal pore-forming domain (PFD)), although similar results were obtained with the other 43 APOL2-cross reactors (all to the PFD, data not shown). […] APOL1 is shown stained with PFD mAb 3.7D6, membrane-addressing domain (MAD) mAb 3.3A8, or SRA-interacting domain (SRA-ID) mAb 3.1C1, each detected with Alexa488 anti-mouse (see Example 1 below for epitope mapping), although similar results were obtained with all the other APOL1-specific antibodies to all three domains (data not shown). The reticular ER pattern persists in digitonin (plasma membrane only)-permeabilized cells for APOL2, but not APOL1, indicating APOL2 is on the cytoplasmic face of the ER, while APOL1 is inside. The nuclear membrane signal for APOL1 with digitonin is also seen without detergent in some cells since PFA semi-permeabilizes the nuclear membrane (data not shown). With digitonin, some of the more sensitive antibodies, including the PFD (3.7D6) and SRA-ID (3.1C1) antibodies shown here (but not MAD antibody 3.3A8), additionally detected APOL1 on the plasma membrane (arrowhead), which is topologically equivalent to the ER lumen.
Cells were plated on LabTekII (Nalge Nunc 154534) slides and fixed at 70-100% confluency. For mAb screening, cells were fixed/permeabilized for 5 min in −20° C. methanol (EMD MX0485-6). […]

Assay [3] deals with T3, iAPOL1-G0 in podocytes (EIK variant, doxycycline-inducible, in APOL1 KO podocytes) (human, UniProt O14791 29-398).
T3 construct: Stably re-expressed untagged APOL1 isoform A in APOL1 KO clone 89401-3; also called iAPOL1-G0 podocytes; iAPOL1 podocytes
T3 chain: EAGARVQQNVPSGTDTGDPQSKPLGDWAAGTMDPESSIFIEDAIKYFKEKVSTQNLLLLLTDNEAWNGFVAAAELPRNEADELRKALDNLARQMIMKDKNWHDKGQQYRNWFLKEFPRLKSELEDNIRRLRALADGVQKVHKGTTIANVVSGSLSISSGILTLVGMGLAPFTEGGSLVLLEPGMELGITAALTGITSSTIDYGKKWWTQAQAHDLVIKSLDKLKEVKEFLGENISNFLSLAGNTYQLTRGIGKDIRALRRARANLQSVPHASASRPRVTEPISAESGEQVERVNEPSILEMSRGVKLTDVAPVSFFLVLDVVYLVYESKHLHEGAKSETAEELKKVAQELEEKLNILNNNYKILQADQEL
In words: flow cytometry, iAPOL1-G0 podocytes, 1 µg/ml. As for the experimental part: APOL1 KO (black line) is completely negative, overlapping with Alexa488 anti-mouse secondary alone (grey line) as expected. A representative histogram from 3-4 experiments is shown.
as §1
On the technique in general: A flow cytometer gives signals particle by particle.

Assay [4] deals with T1, endogenous human APOL1 (wild-type …). In words: flow cytometry, live WT and iAPOL1-G0 podocytes. Here is the method: as §1
More importantly, there were also differential APOL1 accessibilities between serum APOL1 and kidney disease-relevant podocytes (FIG. 18B). Some antibodies bound surface APOL1 in WT and iAPOL1 podocytes (FIG. 6A, 6B), but not circulating APOL1 (as judged by lack of trypanolytic blockade, FIG. 6C) and vice versa. […] Conversely, 3.3B6 and 4.17A5 were among the top trypanolytic blockers, but recognized the podocyte surface relatively weakly. […]

B1: antibody 3.6D12 (antibody, V domains shown)
VH: EVMLVESGGGLVRPGGSLKLSCTASGFTFSRCAMSWVRQTPEKRLEWVSAISRDSTYTYYSDSVKGRFTVSRDNAKNTLYLQMSSLRSEDTAMYYCARQIDDYYVDALDYWGQGTSVTVSS
VL: DVQITQSPSYLAASPGETITINCRASKIISKYLAWYQEKPGKTIKLLIYSGFTLQSGIPSRFSGSGSGTDFTLTISSLEPEDFAMYYCQQHNEYPLTFGAGTKLEIKR
notes: Mouse mAb (Method #3), cloned as murine IgG2a LALAPG; Early screens used hybridoma-purified antibody; also called mAb 3.6D12
B1: the binding result in assay [1] is listed as “binds”.

B2: antibody 3.1C1 (antibody, V domains shown)
VH: QVQLQQSGPELVKPGASVRISCKASGYTFTNYFIHWVKQRPGQGLEWIGWINPGNLNTKYTEEFKGKATLTADKSSSTAYIQLNSLTSEDSAVYFCVNGNPFVYWGQGTLVTVSA
VL: DIVMTQSPSSLTVIAGEKVTLNCKSSQSLLNSGNQKKYLTWLQQKPGQPPKLLIYWTSTRDSGVPDRFTGSGSGTDFTLTISSVQAEDLAVYYCQNDYSYPLTFGAGTKLEIKR
notes: Mouse mAb, cloned as murine IgG2a LALAPG; not written separately; also called SRA-ID mAb 3.1C1
B2: the binding result in assay [2] was “binds”.

B3: antibody 3.7D6 (antibody, V domains shown)
VH: QIQLVQSGPDLKKPGETVKISCRTSGYAFTNYGVNWVKQAPGKGLKWMGWINTNTGQTTYAEEFRGRFAISLETSASTAFLTISNLKNEDSATYFCARLIYDGDYISSDFWGQGTTLTVSS
VL: DIQMTQSPDSLSASVGETVTITCGASENIYGALNWYQRKQGKSPQLLIYGATNLADGMSSRFSGSRSGRQYSLKISSLHPDDVATYYCQNALSMPYTFGGGTKLEIKR
notes: Mouse mAb, cloned as murine IgG2a LALAPG; those versions are not written separately; also called PFD antibody 3.7D6
Turning to B3, in assay [3], the binding result is “binds”.

B4: antibody 4.17A5 (antibody, V domains shown)
VH: QVQLQQSGPELLKPGASVKISCKGSGYAFSNSWINWVKLRPGQGLEWIGRIYPGDGDTKYNGKFKGKATLTADKSSSTAHMQLRSLTSVDSAVYFCARFPFGKYEGPGAMDYWGQGTSVTVSS
VL: DIQMTQTTSSLSASLGDRVTISCRASQDISSYLNWYQQKPDGTIKLLIYYTSRLHSGVPSRFSGSGSGTDFSLTISNLEQEDIATYFCQQGNTLPYTFGGGTKLEIKR
notes: Mouse mAb (Method #4), cloned as murine IgG2a LALAPG; also called mAb 4.17A5
With B4, in assay [4], the binding result is on record as “binds”.
